Assay results from patent US11685791B2, “Antibody binding specifically to N-terminal region of lysyl-tRNA synthetase exposed on cell membrane” (Zymedi Co., Ltd., priority 2017, dated 2023).

Tests used:
[1] = Body weight change in PAH model; conditions: MCT + Sildenafil, n = 5
Text: (§3) To induce PAH in seven-week-old SD rats (Orient Bio), 60 mpk of monocrotaline (MCT) was subcutaneously injected. […] All antibodies were i.v. injected twice a week, and sildenafil was orally administered every day.

[2] = tested on: pulmonary arterial hypertension (PAH) models; test: Echocardiography in PAH model; format: in vivo, rat; conditions: MCT PAH rats, five animals per group
Text: as §3

[3] = tested on: pulmonary arterial hypertension (PAH) models; test: Blood pressure and cardiac output in monocrotaline PAH model; format: in vivo, rat; conditions: MCT + Sildenafil 25 mpk orally every day, 3 weeks
Procedure: After three weeks, the rats were anesthetized with isoflurane, and measured for blood flow and pressure by using a high-precision pneumatic measurement system (MPVS cardiovascular pressure and volume system, model name: MPVS Ultra, manufacturer: Millar Instruments). The right ventricular end-systolic pressure (RVESP), right ventricular end-diastolic pressure, left ventricular end-systolic pressure, left ventricular end-diastolic pressure were measured using an exclusive catheter (Mikro-Tip rat pressure catheter, manufacturer: Millar Instruments). The cardiac output was measured using a perivascular blood flow probe (Transonic Flow probes, manufacturer: Millar Instruments), and experimental method thereof was performed by the same method as disclosed in the following literature: Pacher P, Nagayama T, Mukhopadhyay P, Batkai S, Kass D A. Measurement of cardiac function using pressure-volume conductance catheter technique in mice and rats. Nat Protoc 2008; 3(9):1422-34.
The models of PAH, which is a disease having a close relation between immune cell invasion and pathological phenomena, were treated with N3 IgG antibody (1 mpk or 10 mpk) for 3 weeks (i.v., twice a week), and then measured for right ventricular end-systolic pressure (RVESP), right ventricular end-diastolic pressure (RVEDP), left ventricular end-systolic pressure (LVESP), left ventricular end-diastolic pressure (LVEDP), and cardiac output (CO).

[4] = target: T1, KRS N-terminus (Homo sapiens, UniProt Q15046); test: Western blotting of scFv clones against full-length KRS and KRS fragments; format: binding; conditions: full-length KRS, fragment lacking N-terminal aa 1-71, fragment aa 1-200; transformed A549 lysate
T1 construct: a KRS fragment composed of amino acid residues 1-200 in the N-terminus; expressed in transfected cells; host or cells: A549
T1 sequence (Q15046 1-200): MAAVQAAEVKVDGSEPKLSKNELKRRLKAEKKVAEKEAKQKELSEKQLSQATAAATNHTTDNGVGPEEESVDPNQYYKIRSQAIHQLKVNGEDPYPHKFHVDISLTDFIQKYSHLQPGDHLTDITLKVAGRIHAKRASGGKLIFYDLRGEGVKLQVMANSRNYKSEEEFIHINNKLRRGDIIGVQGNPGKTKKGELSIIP
Text: To investigate whether the scFv clones (N3, N5, N7, and N9) finally selected through Example <1-6> actually bound to KRS N-terminus, full-length KRS (denoted by F, SEQ ID NO: 76), a KRS fragment with deletion in amino acids at positions 1-71 in the N-terminus (defined by SEQ ID NO: 1), and a KRS fragment composed of amino acid residues 1-200 in the N-terminus (defined by SEQ ID NO: 2) were used to conduct western blotting.
A549 cells were transformed by the method as described in Example <1-6> using polynucleotides encoding full-length KRS and KRS fragments. Thereafter, the cells were lysed, and western blotting was performed by the same method as described in Example <1-4>.

[5] = target: T2, KRS N-terminal region exposed on the cell membrane (A549 cells, myc-KRS WT/T52D/T52A) (Homo sapiens, UniProt Q15046, T52D); test: Immunofluorescence of scFv clones on cells with KRS N-terminal region exposed on the cell membrane; format: cell-based; conditions: A549 cells expressing myc-KRS T52D (active), T52A (inactive) or WT-KRS (laminin untreated)
T2 construct: expressed in transfected cells; host or cells: A549
T2 sequence (Q15046 whole entry T52D): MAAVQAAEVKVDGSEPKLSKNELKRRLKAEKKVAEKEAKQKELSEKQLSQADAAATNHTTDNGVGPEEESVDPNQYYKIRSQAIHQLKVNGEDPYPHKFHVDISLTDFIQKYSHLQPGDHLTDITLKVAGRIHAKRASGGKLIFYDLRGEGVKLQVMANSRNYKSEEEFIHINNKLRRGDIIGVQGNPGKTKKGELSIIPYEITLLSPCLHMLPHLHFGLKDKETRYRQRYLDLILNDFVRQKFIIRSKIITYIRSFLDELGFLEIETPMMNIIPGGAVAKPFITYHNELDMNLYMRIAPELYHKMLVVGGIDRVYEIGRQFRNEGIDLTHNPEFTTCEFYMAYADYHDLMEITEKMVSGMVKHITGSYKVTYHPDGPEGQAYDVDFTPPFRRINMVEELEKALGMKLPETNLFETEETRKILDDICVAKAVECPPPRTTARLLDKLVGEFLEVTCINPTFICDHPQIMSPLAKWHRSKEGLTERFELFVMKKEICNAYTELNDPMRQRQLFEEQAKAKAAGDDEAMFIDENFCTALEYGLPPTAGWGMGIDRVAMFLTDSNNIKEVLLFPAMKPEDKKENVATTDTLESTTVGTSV
Procedure: (§1) Immunofluorescence was performed to investigate whether the scFv clones selected in Example <1-5> actually bound to the KRS N-terminal region exposed on the cell membrane. In order to make a phenomenon in which KRS is exposed on the membrane, KRS-T52D mutant (active mutant) was used. […] After incubation for 24 h, the cells were incubated using serum-free media (RPMI 1640 media) at 37° C. for 1 h. Thereafter, the cells were treated with 10 μg/ml laminin (L2020; Sigma) and then incubated at 37° C. for 1 h.
(§2) The prepared samples were washed with PBS (4° C.), fixed by the treatment with 4% paraformaldehyde for 10 min, and then washed. The samples were blocked with CAS block for 10 min, and treated with the scFv and Myc antibodies for 2 h. Thereafter, the unbound antibodies were washed out, and incubated with secondary antibodies for 1 h in a dark room. DAPI staining was performed for 10 min before mounting.

[6] = target: T3, KRS (Homo sapiens, UniProt Q15046); test: Western blotting and immunoprecipitation of converted IgGs; format: binding; conditions: HCT116 cell lysate
T3 construct: endogenous in cells; host or cells: HCT116
T3 sequence (Q15046 whole entry): as the sequence (Q15046 whole entry T52D) above, with D52T counted along it

[7] = target: T4, extracellularly exposed KRS N-terminal region (Homo sapiens, UniProt Q15046); test: Immunofluorescence staining of converted IgGs; format: cell-based; conditions: WT-KRS membrane localization induced by laminin treatment
T4 construct: expressed in transfected cells; host or cells: A549
T4 sequence (Q15046 whole entry): as the sequence (Q15046 whole entry T52D) above, with D52T counted along it
Procedure: as §1, §2
To investigate whether the IgGs constructed in the present invention actually bound to the region of KRS exposed on the cell membrane, immunofluorescence was performed. Immunofluorescence staining was performed by the same method as described in Example <1-6> by using N3 IgG and N5 IgG as representatives.

[8] = target: T5, KRS 1-207 aa (Homo sapiens, UniProt Q15046); test: SPR (Biacore 2000) binding of IgGs to immobilized KRS; conditions: immobilized KRS 185 RU, antibody 6.25-100 nM
T5 construct: to the antigen (KRS 1-207 aa)
T5 sequence (Q15046 1-207): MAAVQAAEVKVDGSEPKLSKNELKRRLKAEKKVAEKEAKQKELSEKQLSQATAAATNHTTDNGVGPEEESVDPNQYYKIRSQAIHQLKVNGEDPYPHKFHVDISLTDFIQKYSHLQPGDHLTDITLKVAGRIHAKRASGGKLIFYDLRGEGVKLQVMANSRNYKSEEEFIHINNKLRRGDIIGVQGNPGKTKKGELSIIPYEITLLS
Procedure: The quantitative binding ability of the purified antibody proteins (N3 IgG and N5 IgG) to the antigen (KRS 1-207 aa) were measured using Biacore 2000 SPR (surface plasmon resonance) (GE healthcare, US) biosensor. After KRS was immobilized on a sensor chip (CM5, GE healthcare, US), antibody proteins (6.25-100 nM), which were serially diluted with HES buffer solution (10 mM HEPES, pH 7.4, 150 mM NaCl, 3 mM EDTA, 0.005% surfactant P20), were allowed to flow at a rate of 30 μl/min for 3 min, and 1 M NaCl/20 mM NaOH was allowed to flow at a rate of 30 μl/min for 3 min, thereby inducing the dissociation of proteins bound to the antigen. Mock IgG was used as control. Specific experiment conditions are as follows:
Immobilized level: 185 RU
Antibody: N3 IgG and N5 IgG
Running buffer: HBS-N buffer
Regeneration: 2 M NaCl, 20 mM NaOH (flow 30 ul/min 1 min)
The affinity was obtained from the kinetic rate constants (ka and kd) and equilibrium dissociation constants (KD) by using BIA evaluation ver. 3.2 software. FIGS. 6A-6B show SPR graph results of N3 IgG and N5 IgG, respectively. It was confirmed from FIGS. 6A-6B and Table 3 that N3 IgG and N5 IgG of the present invention has high specific binding ability to the KRS N-terminal region.

## CCCc1nn(C)c2c(=O)[nH]c(-c3cc(S(=O)(=O)N4CCN(C)CC4)ccc3OCC)nc12 [Sildenafil, sildenafil, reference compound]
[1]
  body weight, absolute change: 104.1 ± 26.4 g
  body weight, relative change: 49.8 ± 10.5%
[2]
  D-shaped left ventricle finding indicating pressure overload in the right ventricle: three
[3]; n = 4
  CO: 49.6 ± 17.7 mL/min
[3]; n = 5
  LVEDP: 3.6 ± 2.3 mmHg
  LVESP: 83.2 ± 4.7 mmHg
  RVEDP: 2.6 ± 1.3 mmHg
  RVESP: 48.4 ± 9.6 mmHg

B1: N5 scFv: scFv clone consisting of the amino acid sequence defined by SEQ ID NO: 69 (protein)
scFv: EVQLLESGGGLVQPGGSLRLSCAASGFTFSDYAMSWVRQAPGKGLEWVSWIYSGSGNKYYADSVKGRFTISRDNSKNTLYLQMNSLRAEDTAVYYCARMGLDFDYWGQGTLVTVSSGGGGSGGGGSGGGGSQSVLTQPPSASGTPGQRVTISCTGSSSNIGNNYVSWYQQLPGTAPKLLIYDDNQRPSGVPDRFSGSKSGTSASLAISGLRSEDEADYYCGTWDDSLSAYVFGGGTKLTVL
[4]
  specific binding to KRS N-terminus (western blotting): specifically bound to the KRS N-terminus
[5]
  binding to membrane-exposed KRS N-terminal region (immunofluorescence): binding only active mutant cells

B2: N3 scFv: scFv clone consisting of the amino acid sequence defined by SEQ ID NO: 67 (protein)
scFv: EVQLLESGGGLVQPGGSLRLSCAASGFTFSSYDMSWVRQAPGKGLEWVSAISYDNGNTYYADSVKGRFTISRDNSKNTLYLQMNSLRAEDTAVYYSARMALDFDYWGQGTLVTVSSGGGGSGGGGSGGGGSQSVLTQPPSASGTPGQRVTISCTGSSSNIGSNYVTWYQQLPGTAPKLLIYDNSNRPSGVPDRFSGSKSGTSASLAISGLRSEDEADYYCASWDDSLSAYVFGGGTKLTVL
[4]
  specific binding to KRS N-terminus (western blotting): specifically bound to the KRS N-terminus
[5]
  binding to membrane-exposed KRS N-terminal region (immunofluorescence): binding only active mutant cells

B3: N9 scFv: scFv clone consisting of the amino acid sequence defined by SEQ ID NO: 73 (protein)
scFv: EVQLLESGGGLVQPGGSLRLSCAASGFTFSNYDMSWVRQAPGKGLEWVSWIYSGDSSKYYADSVKGRFTISRDNSKNTLYLQMNSLRAEDTAVYYSARETRTFDYWGQGTLVTVSSGGGGSGGGGSGGGGSQSVLTQPPSASGTPGQRVTISCTGSSFNIGSNAVYWYQQLPGTAPKLLIYYNSQRPSGVPDRFSGSKSGTSASLAISGLRSEDEADYYCGSWDASLSGYVFGGGTKLTVL
[4]
  specific binding to KRS N-terminus (western blotting): specifically bound to the KRS N-terminus
[5]
  binding to membrane-exposed KRS N-terminal region (immunofluorescence): binding only active mutant cells

B4: N5 IgG: IgG converted from N5 scFv; VH SEQ ID NO: 53, VL SEQ ID NO: 55 (antibody, V domains shown)
VH: EVQLLESGGGLVQPGGSLRLSCAASGFTFSDYAMSWVRQAPGKGLEWVSWIYSGSGNKYYADSVKGRFTISRDNSKNTLYLQMNSLRAEDTAVYYCARMGLDFDYWGQGTLVTVSS
VL: QSVLTQPPSASGTPGQRVTISCTGSSSNIGNNYVSWYQQLPGTAPKLLIYDDNQRPSGVPDRFSGSKSGTSASLAISGLRSEDEADYYCGTWDDSLSAYVFGGGTKLTVL
[6]
  KRS binding ability (western blotting and immunoprecipitation): bound to KRS
[7]
  binding to extracellularly exposed KRS N-terminal region (immunofluorescence): favorably bound specifically
[8]
  ka: 3.13e+06 M⁻¹ s⁻¹
  kd: 0.003282 s⁻¹

B5: N7 scFv: scFv clone consisting of the amino acid sequence defined by SEQ ID NO: 71 (protein)
scFv: EVQLLESGGGLVQPGGSLRLSCAASGFTFSDYYMSWVRQAPGKGLEWVSGIYSGTGSIYYADSVEGRFTISRDNSKNTLYLQMNSLRAEDTAVYYSARPPYHFDYWGQGTLVTVSSGGGGSGGGGSGGGGSQSVLTQPPSASGTPGQRVTISCTGSSSNIGSNYVTWYQQLPGTAPKLLIYADSNRPSGVPDRFSGSKSGTSASLAISGLRSEDEADYYCGAWDYSLSGYVFGGGTKLTVL
[4]
  specific binding to KRS N-terminus (western blotting): specifically bound to the KRS N-terminus
[5]
  binding to membrane-exposed KRS N-terminal region (immunofluorescence): binding only active mutant cells
